{
  "source": "patent US12134663B2",
  "about": "“Cationic peptides for activating Lck” (Interk Peptide Therapeutics Limited, priority 2018, dated 2024)",
  "note": "“Also recorded” adds a separate entry of the source. Where no end group is shown, it is not given here. [ ]: non-standard residue; d: D form. 2Adod = 2-amino-dodecanoic acid; Orn = NCCC[C@H](N)C(=O)O",
  "data": [
    {"target": "T1, Lck (Homo sapiens, UniProt P06239)", "T1 construct": "purchased Eurofins Pharma Discovery Services UK Limited", "assay": "Lck Activity above control (1µM)", "details": "not given", "description": "First copying reader's note: The Peptide column holds the sequence together with the SEQ ID NO and the peptide code; the activity was measured at 1µM peptide, as the head states.", "units": {"Lck Activity above control (1 µM)": "%"}, "values": [
      {"substance": "DDDDDDDDD-NH2 (SEQ ID NO: 21, IKD9)", "Lck Activity above control (1 µM)": 0},
      {"substance": "DSEAENPLY-DDDDDDDDD-NH2 (SEQ ID NO: 23, IKDE800) (DSEAENPLYDDDDDDDDD-NH2)", "Lck Activity above control (1 µM)": 0},
      {"substance": "HHH-RRRRRRRRR-HHH (SEQ ID NO: 16, IK03930) (HHHRRRRRRRRRHHH)", "Lck Activity above control (1 µM)": 386},
      {"substance": "HHHHH-RRRRRRRRR-HHHHH (SEQ ID NO: 17, IK05950) (HHHHHRRRRRRRRRHHHHH)", "Lck Activity above control (1 µM)": 286},
      {"substance": "HHHHHHHHHH (SEQ ID NO: 14, 10His)", "Lck Activity above control (1 µM)": 0},
      {"substance": "KKKKKKKK-HHHHHHHHHH (SEQ ID NO: 18, IK00K10)", "Lck Activity above control (1 µM)": 70},
      {"substance": "OrnOrnOrnOrnOrnOrnOrnOrnOrnOrn (SEQ ID NO: 15, 10 Orn)", "Lck Activity above control (1 µM)": 13},
      {"substance": "RRRR (SEQ ID NO: 1, IK00400)", "Lck Activity above control (1 µM)": 0},
      {"substance": "RRRRR (SEQ ID NO: 2, IK00500)", "Lck Activity above control (1 µM)": 0},
      {"substance": "RRRRRR (SEQ ID NO: 3, IK00600)", "Lck Activity above control (1 µM)": 0},
      {"substance": "RRRRRRRR (SEQ ID NO: 4, IK00800)", "Lck Activity above control (1 µM)": 126},
      {"substance": "RRRRRRRR-HHHHHHHHHH (SEQ ID NO: 19, IK00810) (RRRRRRRRHHHHHHHHHH)", "Lck Activity above control (1 µM)": 259},
      {"substance": "RRRRRRRRRR (SEQ ID NO: 7, IK00100)", "Lck Activity above control (1 µM)": 389},
      {"substance": "RRRRRRRRRRRR (SEQ ID NO: 8, IK01200)", "Lck Activity above control (1 µM)": 401},
      {"substance": "RRRRRRRRRRRRRR (SEQ ID NO: 9, IK01400)", "Lck Activity above control (1 µM)": 351},
      {"substance": "RRRRRRRRRRRRRR-OH (SEQ ID NO: 11, IK014OH)", "Lck Activity above control (1 µM)": 156},
      {"substance": "RRRRRRRRRRRRRRRRRRRR (SEQ ID NO: 12, IK00200) (RRRRRRRRRRRRRRRRRRRRR)", "Lck Activity above control (1 µM)": 279},
      {"substance": "RSKAKNPLY-RRRRRRRRR-NH2 (SEQ ID NO: 24, IK14800) (RSKAKNPLYRRRRRRRRR-NH2)", "Lck Activity above control (1 µM)": 377},
      {"substance": "RSKAKNPLYR-RRRRRRRR-(2Adod)4-NH2 (SEQ ID NO: 65, IK14804) (RSKAKNPLYRRRRRRRRR-{2Adod-2Adod-2Adod-2Adod-NH2})", "Lck Activity above control (1 µM)": 468},
      {"substance": "RVKVKVVVVR-RRRRRRRR-(2Adod)4-NH2 (SEQ ID NO: 66, IK15804) (RVKVKVVVVRRRRRRRRR-{2Adod-2Adod-2Adod-2Adod-NH2})", "Lck Activity above control (1 µM)": 335}
    ]},
    {"target": "T1, Lck", "assay": "Lck Activity above control (1 µM)", "details": "not given", "description": "Table printed on a drawing sheet, FIG. 5\n(§1) Head of the field: Lck Activity above control (1 µM)\nFirst copying reader's note: The Peptide column holds the sequence together with its SEQ ID NO and IK code in brackets; the activity was measured at 1 µM peptide and the % sign stands in the cells.\n(§2) Where the first naming reader finds the target: head: Lck Activity above control (1 µM)", "units": {"Lck Activity above control (1 µM)": "%"}, "values": [
      {"substance": "Branched < RSKAKNPLY-RRRRRRRRR-HHHHHHHHHH (SEQ ID NO: 48, Br IK14810) (RSKAKNPLYRRRRRRRRRHHHHHHHHHH; also: branched (1)..(28))", "Lck Activity above control (1 µM)": 596},
      {"substance": "HHHHH-RRRRRRRRR-HHHHH-RSKAKNPLYR (SEQ ID NO: 51, IK59514) (HHHHHRRRRRRRRRHHHHHRSKAKNPLYR)", "Lck Activity above control (1 µM)": 441},
      {"substance": "HHHHH-RSKAKNPLY-RRRRRRRRR-HHHHH (SEQ ID NO: 53, IK51455) (HHHHHRSKAKNPLYRRRRRRRRRHHHHH)", "Lck Activity above control (1 µM)": 685},
      {"substance": "KEKLKNPLFK-RRRRRRRR-HHHHHHHHHH (SEQ ID NO: 64, IKB2810) (KEKLKNPLFKRRRRRRRRHHHHHHHHHH)", "Lck Activity above control (1 µM)": 379},
      {"substance": "RRRRRRRR-HHHHHHHHHH-RSKAKNPLYR (SEQ ID NO: 52, IK81140) (RRRRRRRRHHHHHHHHHHRSKAKNPLYR)", "Lck Activity above control (1 µM)": 567},
      {"substance": "RRRRRRRR-RVKVKVVVV-R (SEQ ID NO: 59, IK80150) (RRRRRRRRRVKVKVVVVR)", "Lck Activity above control (1 µM)": 520},
      {"substance": "RSKAKNPLY-RKRKRKRKRK (SEQ ID NO: 54, IK94RK0) (RSKAKNPLYRKRKRKRKRK)", "Lck Activity above control (1 µM)": 456},
      {"substance": "RSKAKNPLY-RRRRRRRRR-HHHHH (SEQ ID NO: 46, IK14510) (RSKAKNPLYRRRRRRRRRHHHHH)", "Lck Activity above control (1 µM)": 524},
      {"substance": "RSKAKNPLY-RRRRRRRRR-HHHHHHHHHHHH (SEQ ID NO: 49, IK14820) (RSKAKNPLYRRRRRRRRRHHHHHHHHHHHH)", "Lck Activity above control (1 µM)": 556},
      {"substance": "RVKVKVVVV (SEQ ID NO: 55, IK95000)", "Lck Activity above control (1 µM)": 518},
      {"substance": "RVKVKVVVV-RHRHRHRHRHRHRHRH-HH (SEQ ID NO: 61, IK52820) (RVKVKVVVVRHRHRHRHRHRHRHRHHH)", "Lck Activity above control (1 µM)": 408},
      {"substance": "RVKVKVVVV-RRRRR (SEQ ID NO: 56, IK15400) (RVKVKVVVVRRRRR)", "Lck Activity above control (1 µM)": 382},
      {"substance": "RVKVKVVVV-RRRRRRRR (SEQ ID NO: 57, IK15700) (RVKVKVVVVRRRRRRRR)", "Lck Activity above control (1 µM)": 512},
      {"substance": "RVKVKVVVV-RRRRRRRRR (SEQ ID NO: 58, IK15800) (RVKVKVVVVRRRRRRRRR)", "Lck Activity above control (1 µM)": 479},
      {"substance": "RVKVKVVVV-RRRRRRRRR-HHHHHHHHHH (SEQ ID NO: 60, IK50810) (RVKVKVVVVRRRRRRRRRHHHHHHHHHH)", "Lck Activity above control (1 µM)": 778}
    ]},
    {"target": "T1, Lck", "assay": "In vitro Lck activation kinase study (Eurofins)", "assay_type": "biochemical", "details": "peptide 1 μM where stated", "description": "(§3) The ability of polypeptides of the present invention to activate Lck was examined in vitro. Lck is member of the Src family of tyrosine kinases. […] All results in are percentage Lck activity relative to control (100%).\n(§4) Test polypeptides were assessed at a concentration of 1.0 μM.\n(§5) The ability of polypeptides of the present invention to activate Src family kinases was examined in vitro. Kinase activation studies utilising peptides were carried out as described in Example 1, and all kinase activity values are shown as percentage relative to control.\n(§6) The ability of polypeptides comprising both lysine and arginine to activate Lck in vitro was examined. Lck activation studies utilising peptides were carried out as described in Example 1, and all kinase activity values are shown as percentage relative to control.", "values": [
      {"substance": "Branched < RSKAKNPLY-RRRRRRRRR-HHHHHHHHHH (RSKAKNPLYRRRRRRRRRHHHHHHHHHH; also: branched (1)..(28)) [Br IK14810]", "Lck activation (in words)": "Substantially increased Lck activity"},
      {"substance": "DDDDDDDDD [IKD9]", "Lck activation (in words)": "does not activate Lck"},
      {"substance": "HHHHHHHHHH [10His]", "Lck activation (in words)": "No increase in Lck activity; also recorded: did not induce any activation of Lck"},
      {"substance": "RRRR [SEQ ID NO: 119]", "Lck activation (in words)": "do not activate Lck"},
      {"substance": "RRRRR [SEQ ID NO: 2]", "Lck activation (in words)": "do not activate Lck"},
      {"substance": "RRRRRR [SEQ ID NO: 3]", "Lck activation (in words)": "do not activate Lck"},
      {"substance": "RSKAK [IK5000]", "Lck activation (in words)": "no or negligible Lck activation"},
      {"substance": "RSKAKNPLY-RRRR (RSKAKNPLYRRRR) [SEQ ID NO: 32]", "Lck activation (in words)": "no Lck activation"},
      {"substance": "RVKVKVVVV [IK95000]", "Lck activation (in words)": "substantial increases in Lck activity"},
      {"substance": "[Orn][Orn][Orn][Orn][Orn][Orn][Orn][Orn][Orn][Orn] [10 Orn]", "Lck activation (in words)": "Negligible Lck activity"}
    ]},
    {"target": "T1, Lck", "assay": "In vitro Lck activation kinase study (Eurofins)", "assay_type": "biochemical", "details": "peptide 1 μM where stated; listed as DDDDDDDDD", "description": "as §3, §4, §5, §6", "values": [
      {"substance": "DDDDDDDDD [IKD9]", "Lck activation (in words)": "does not increase the activity of Lck"}
    ]},
    {"target": "T1, Lck", "assay": "In vitro Lck activation kinase study (Eurofins)", "assay_type": "biochemical", "details": "peptide 1 μM; relative to control", "description": "as §3, §4, §5, §6", "units": {"increase in Lck activity": "%"}, "values": [
      {"substance": "RVKVK-RRRRRRRRR-HHHHHHHHHH (RVKVKRRRRRRRRRHHHHHHHHHH) [IK50810]", "increase in Lck activity": 778}
    ]},
    {"target": "T1, Lck", "assay": "Lck Activity above control (1 µM)", "details": "not given", "remark": "another data set of the same source", "description": "Table printed on a drawing sheet, FIG. 4\nas §1\nFirst copying reader's note: The first column holds the sequence together with the SEQ ID NO and peptide code in one cell; activity was measured at 1 µM peptide.\nas §2", "units": {"Lck Activity above control (1 µM)": "%"}, "values": [
      {"substance": "IAGQ-RSKAKNPLY-RRRRRRRRR (SEQ ID NO: 40, IKM14800) (IAGQRSKAKNPLYRRRRRRRRR)", "Lck Activity above control (1 µM)": 454},
      {"substance": "RSKAK-R (SEQ ID NO: 26, IK50100) (RSKAKR)", "Lck Activity above control (1 µM)": 0},
      {"substance": "RSKAK-RRR (SEQ ID NO: 28, IK50300) (RSKAKRRR)", "Lck Activity above control (1 µM)": 0},
      {"substance": "RSKAK-RRRR (SEQ ID NO: 29, IK50400) (RSKAKRRRR)", "Lck Activity above control (1 µM)": 0},
      {"substance": "RSKAKNPLY (SEQ ID NO: 30, IK94000)", "Lck Activity above control (1 µM)": 0},
      {"substance": "RSKAKNPLY-KKKKKKKKK (SEQ ID NO: 44, IK94K90)", "Lck Activity above control (1 µM)": 49},
      {"substance": "RSKAKNPLY-RRRR (SEQ ID NO: 32, IK14300) (RSKAKNPLYRRRR)", "Lck Activity above control (1 µM)": 0},
      {"substance": "RSKAKNPLY-RRRRRRRRR-GPLG (SEQ ID NO: 41, IK148MP9) (RSKAKNPLYRRRRRRRRRGPLG)", "Lck Activity above control (1 µM)": 320},
      {"substance": "RSKAKNPLYR (SEQ ID NO: 31, IK14000)", "Lck Activity above control (1 µM)": 0},
      {"substance": "r s k a k n p l y - r r r r r r r r r (SEQ ID NO: 129, IKD14800) ([dR][dS][dK][dA][dK][dN][dP][dL][dY][dR][dR][dR][dR][dR][dR][dR][dR][dR])", "Lck Activity above control (1 µM)": 490}
    ]}
  ]
}
